According to the supplement of paper PMC9112550, “Optimization of the antimicrobial peptide Bac7 by deep mutational scanning” (BMC Biology, 2022):

Tested on: Escherichia coli TOP10
Assay: shrunken log2 fold change of peptide-encoding DNA abundance (4.5 h post-induction vs induction); higher = less antimicrobial activity (less host growth inhibition)
Settings: time post-induction: 4.5 h; library: site-saturation at positions 5, 18, 19, 20
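Also: peptides expressed intracellularly from a pBAD plasmid library in pooled LB shake-flask culture, induced with 0.3% L-arabinose, DNA abundance read by NGS, three biological replicates, DESeq2 with apeglm shrinkage.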

Sequence	shrunken log2 fold change
RRIRYRPPRLPRPRPRPDRDPRP	-0.109
RRIRERPPRLPRPRPRPGLNPRP	0.127
RRIRTRPPRLPRPRPRPGMQPRP	-0.0474
RRIRYRPPRLPRPRPRPFKTPRP	-0.398
RRIRARPPRLPRPRPRPSFAPRP	0.432
RRIRRRPPRLPRPRPRPPVDPRP	0.241
RRIRARPPRLPRPRPRPILPPRP	0.0507
RRIRSRPPRLPRPRPRPMRSPRP	0.0162
RRIRGRPPRLPRPRPRPMVTPRP	1.29
RRIRHRPPRLPRPRPRPNRVPRP	-0.672
RRIRLRPPRLPRPRPRPKSAPRP	0.139
RRIRLRPPRLPRPRPRPDFNPRP	-0.444
RRIRFRPPRLPRPRPRPSDVPRP	0.0142
RRIRRRPPRLPRPRPRPQNWPRP	0.199
RRIRNRPPRLPRPRPRPWGRPRP	0.0851
RRIRGRPPRLPRPRPRPRTCPRP	0.592
RRIRWRPPRLPRPRPRPCADPRP	0.579
RRIRHRPPRLPRPRPRPEWPPRP	0.228
RRIRDRPPRLPRPRPRPAESPRP	-0.0371
RRIRKRPPRLPRPRPRPVKKPRP	0.505
RRIRVRPPRLPRPRPRPNQWPRP	-0.264
RRIRVRPPRLPRPRPRPHHYPRP	0.13
RRIRPRPPRLPRPRPRPSKYPRP	-0.528
RRIRVRPPRLPRPRPRPFMEPRP	-0.265
RRIRSRPPRLPRPRPRPRSVPRP	0.0603

Sequence	shrunken log2 fold change
RRIRFRPPRLPRPRPRPSQCPRP	0.153
RRIRYRPPRLPRPRPRPDMMPRP	-0.417
RRIRKRPPRLPRPRPRPEQDPRP	0.0646
RRIRCRPPRLPRPRPRPEKTPRP	-0.0706
RRIRGRPPRLPRPRPRPFLGPRP	0.0188
RRIRHRPPRLPRPRPRPMEIPRP	-0.0801
RRIRDRPPRLPRPRPRPTHSPRP	0.177
RRIRMRPPRLPRPRPRPTFFPRP	0.229
RRIRCRPPRLPRPRPRPRIGPRP	0.016
RRIRSRPPRLPRPRPRPIEDPRP	0.0359
RRIRERPPRLPRPRPRPRIMPRP	-0.712
RRIRHRPPRLPRPRPRPTVMPRP	-0.0285
RRIRSRPPRLPRPRPRPLEMPRP	-0.314
RRIRTRPPRLPRPRPRPHGTPRP	0.219
RRIRARPPRLPRPRPRPPHSPRP	0.902
RRIRQRPPRLPRPRPRPWCPPRP	-0.261
RRIRMRPPRLPRPRPRPDIHPRP	0.335
RRIRIRPPRLPRPRPRPFSGPRP	-0.241
RRIRYRPPRLPRPRPRPHFGPRP	0.0439
RRIRMRPPRLPRPRPRPTGAPRP	1.25
RRIRGRPPRLPRPRPRPMRIPRP	2.34
RRIRQRPPRLPRPRPRPNVFPRP	-0.14
RRIRWRPPRLPRPRPRPQMMPRP	-0.0594
RRIRKRPPRLPRPRPRPLNHPRP	-0.0528
RRIRRRPPRLPRPRPRPDHSPRP	0.0322

Sequence	shrunken log2 fold change
RRIRYRPPRLPRPRPRPLRMPRP	0.0288
RRIRPRPPRLPRPRPRPSIMPRP	-0.552
RRIRMRPPRLPRPRPRPWPGPRP	0.528
RRIRQRPPRLPRPRPRPCYEPRP	-0.0157
RRIRVRPPRLPRPRPRPAAHPRP	0.0619
RRIRYRPPRLPRPRPRPRNGPRP	0.0466
RRIRPRPPRLPRPRPRPTWLPRP	0.522
RRIRMRPPRLPRPRPRPQLFPRP	0.0897
RRIRWRPPRLPRPRPRPNWSPRP	-0.0695
RRIRRRPPRLPRPRPRPPALPRP	0.635
RRIRYRPPRLPRPRPRPYCYPRP	-1.12
RRIRNRPPRLPRPRPRPADFPRP	0.0143
RRIRCRPPRLPRPRPRPHLEPRP	0.0414
RRIRKRPPRLPRPRPRPRWVPRP	0.642
RRIRDRPPRLPRPRPRPETGPRP	-0.0106
RRIRGRPPRLPRPRPRPNPSPRP	0.294
RRIRQRPPRLPRPRPRPMMIPRP	-0.0862
RRIRFRPPRLPRPRPRPGNIPRP	-0.0525
RRIRLRPPRLPRPRPRPKSFPRP	-0.0686
RRIRMRPPRLPRPRPRPMTQPRP	0.22
RRIRGRPPRLPRPRPRPFHYPRP	-0.383
RRIRPRPPRLPRPRPRPSPYPRP	-0.461
RRIRKRPPRLPRPRPRPNIDPRP	-0.0981
RRIRQRPPRLPRPRPRPHVPPRP	-0.0247
RRIRDRPPRLPRPRPRPYGEPRP	-0.31

Sequence	shrunken log2 fold change
RRIRFRPPRLPRPRPRPRFFPRP	0.0547
RRIRDRPPRLPRPRPRPSMLPRP	-0.244
RRIRMRPPRLPRPRPRPAMMPRP	0.59
RRIRYRPPRLPRPRPRPSQHPRP	-0.683
RRIRKRPPRLPRPRPRPLWTPRP	0.0306
RRIRLRPPRLPRPRPRPEKSPRP	0.123
RRIRKRPPRLPRPRPRPCHWPRP	0.139
RRIRLRPPRLPRPRPRPVAAPRP	0.382
RRIRFRPPRLPRPRPRPVDIPRP	-0.338
RRIRARPPRLPRPRPRPPFFPRP	0.603
RRIRARPPRLPRPRPRPMGKPRP	0.472
RRIRHRPPRLPRPRPRPFVWPRP	-0.0616
RRIRGRPPRLPRPRPRPAISPRP	0.296
RRIRDRPPRLPRPRPRPTLWPRP	2.36
RRIRKRPPRLPRPRPRPPYPPRP	0.0247
RRIRYRPPRLPRPRPRPFLRPRP	-0.308
RRIRLRPPRLPRPRPRPENKPRP	-0.328
RRIRARPPRLPRPRPRPTHQPRP	0.528
RRIRQRPPRLPRPRPRPHWMPRP	-0.0751
RRIRMRPPRLPRPRPRPIADPRP	-0.00229
RRIRIRPPRLPRPRPRPKHPPRP	-0.0675
RRIRPRPPRLPRPRPRPKSKPRP	-0.255
RRIRHRPPRLPRPRPRPRIQPRP	-0.267
RRIRARPPRLPRPRPRPHNQPRP	-0.00392
RRIRWRPPRLPRPRPRPPLWPRP	0.558

Sequence	shrunken log2 fold change
RRIRVRPPRLPRPRPRPYAPPRP	-0.0528
RRIRPRPPRLPRPRPRPHPCPRP	-0.105
RRIRERPPRLPRPRPRPWVMPRP	-0.32
RRIRTRPPRLPRPRPRPTQRPRP	0.11
RRIRRRPPRLPRPRPRPHYEPRP	-0.508
RRIRLRPPRLPRPRPRPKFVPRP	-0.055
RRIRFRPPRLPRPRPRPRNRPRP	-0.182
RRIRFRPPRLPRPRPRPRKCPRP	-0.0611
RRIRTRPPRLPRPRPRPAIFPRP	-0.0366
RRIRSRPPRLPRPRPRPMPDPRP	0.235
RRIRNRPPRLPRPRPRPFKDPRP	-0.327
RRIRDRPPRLPRPRPRPLCPPRP	-0.00491
RRIRHRPPRLPRPRPRPPSFPRP	-0.234
RRIRDRPPRLPRPRPRPKIQPRP	0.0161
RRIRIRPPRLPRPRPRPYKCPRP	-0.199
RRIRQRPPRLPRPRPRPCEPPRP	-0.0332
RRIRQRPPRLPRPRPRPCHNPRP	-0.0554
RRIRKRPPRLPRPRPRPARKPRP	-0.0215
RRIRQRPPRLPRPRPRPNAEPRP	0.053
RRIRTRPPRLPRPRPRPDLLPRP	-0.263
RRIRGRPPRLPRPRPRPQREPRP	0.225
RRIRARPPRLPRPRPRPVYVPRP	0.111
RRIRMRPPRLPRPRPRPEYQPRP	0.0424
RRIRCRPPRLPRPRPRPSKEPRP	0.0893
RRIRKRPPRLPRPRPRPCPDPRP	-0.0203
